Test results published in paper PMC6940986, “Structural Insights into the Intracellular Region of the Human Magnesium Transport Mediator CNNM4” (International Journal of Molecular Sciences, 2019).

B1: CNNM4_(BAT-cNMP-Ctail) (complete intracellular region of human CNNM4, residues 356-775) (domain or fragment, UniProt Q6P4Q7 356-775, looked up)
chain: KEELNMIQGALELRTKTVEDIMTQLQDCFMIRSDAILDFNTMSEIMESGYTRIPVFEDEQSNIVDILYVKDLAFVDPDDCTPLKTITRFYNHPVHFVFHDTKLDAMLEEFKKGKSHLAIVQKVNNEGEGDPFYEVLGLVTLEDVIEEIIKSEILDESDMYTDNRSRKRVSEKNKRDFSAFKDADNELKVKISPQLLLAAHRFLATEVSQFSPSLISEKILLRLLKYPDVIQELKFDEHNKYYARHYLYTRNKPADYFILILQGKVEVEAGKENMKFETGAFSYYGTMALTSVPSDRSPAHPTPLSRSASLSYPDRTDVSTAATLAGSSNQFGSSVLGQYISDFSVRALVDLQYIKITRQQYQNGLLASRMENSPQFPIDGCTTHMENLAEKSELPVVDETTTLLNERNSLLHKASHENAI
notes: CNNM4, human, UniProtKB/Swiss-Prot Q6P4Q7, residues 356-775 (Bateman module, linker, cNMP domain and C-terminal tail); Cloned into pHIS-Parallel2; also called hCNNM4_(BAT-cNMP-Ctail); full intracellular region; source: E. coli BL21 (DE3), purified (HisTrap, TEV, second Ni-NTA, Superdex 75); not shown: His6, N-terminal, cleaved

Legend:
[1] = target: B1; experiment: SEC-SAXS; KW-403 size-exclusion column online, 20 C, 20 mM HEPES pH 7.4, 200 mM NaCl, 1 mM DTT; samples about 5 mg/mL; CNNM4_(BAT-cNMP-Ctail) and its complex with PRL-1 each without and with 5 mM MgATP; oligomeric state from Porod volume, Rg, Dmax; settings: both partners purified
[2] = target: the molecule itself; experiment: SEC-MALS; Superdex 200 10/300 GL, 25 C, 20 mM HEPES pH 7.4, 200 mM NaCl, 1 mM TCEP; 100 uL injected at 1 and 10 g/L; monomer to dimer

Row | Binder | stoichiometry N [2] | further results
1 | PRL-1 (phosphatase of regenerating liver 1) (enzyme, PRL-1, phosphatase of the regenerating liver; The methods give no source or construct for PRL-1) MARMNRPAPVEVTYKNMRFLITHNPTNATLNKFIEELKKYGVTTIVRVCEATYDTTLVEKEGIHVLDWPFDDGAPPSNQIVDDWLSLVKIKFREEPGCCIAVHCVAGLGRAPVLVALALIEGGMKYEDAVQFIRQKRRGAFNSKQLLYLEKYRPKMRLRFKDSNGHRNNCCIQ |  | stoichiometry N [1]: 2 PRL-1 molecules per CNNM4_(BAT-cNMP-Ctail) dimer
2 | CNNM4_(cNMP) (human CNNM4 cyclic nucleotide monophosphate binding-like domain, residues 545-730) (domain or fragment, UniProt Q6P4Q7 545-730, looked up, SeMet labeled in the crystals, CNNM4, human, UniProtKB/Swiss-Prot Q6P4Q7, residues 545-730 (cNMP domain only, without the C-terminal tail); Cloned into pHIS-Parallel2; In solution a concentration dependent mixture of monomers and dimers; also called hCNNM4_(cNMP); CNNM4_(545-730); source: E. coli BL21 (DE3), purified (HisTrap, TEV, second Ni-NTA, Superdex 75); SeMet derivative from E. coli B834 (DE3) for the crystals; not …) KISPQLLLAAHRFLATEVSQFSPSLISEKILLRLLKYPDVIQELKFDEHNKYYARHYLYTRNKPADYFILILQGKVEVEAGKENMKFETGAFSYYGTMALTSVPSDRSPAHPTPLSRSASLSYPDRTDVSTAATLAGSSNQFGSSVLGQYISDFSVRALVDLQYIKITRQQYQNGLLASRMENSPQ | 2 | 
3 | B1 | 2 | 
4 | CNNM4_(BAT-cNMP-Ctail) F631A mutant (domain or fragment, human, UniProt Q6P4Q7 356-775, looked up, CNNM4, human, UniProtKB/Swiss-Prot Q6P4Q7, residues 356-775 with F631A; also called F631A mutant of CNNM4_(BAT-cNMP-Ctail)) KEELNMIQGALELRTKTVEDIMTQLQDCFMIRSDAILDFNTMSEIMESGYTRIPVFEDEQSNIVDILYVKDLAFVDPDDCTPLKTITRFYNHPVHFVFHDTKLDAMLEEFKKGKSHLAIVQKVNNEGEGDPFYEVLGLVTLEDVIEEIIKSEILDESDMYTDNRSRKRVSEKNKRDFSAFKDADNELKVKISPQLLLAAHRFLATEVSQFSPSLISEKILLRLLKYPDVIQELKFDEHNKYYARHYLYTRNKPADYFILILQGKVEVEAGKENMKAETGAFSYYGTMALTSVPSDRSPAHPTPLSRSASLSYPDRTDVSTAATLAGSSNQFGSSVLGQYISDFSVRALVDLQYIKITRQQYQNGLLASRMENSPQFPIDGCTTHMENLAEKSELPVVDETTTLLNERNSLLHKASHENAI |  | binding result [2]: binds
